Source: paper PMC10543426, “The PALB2 DNA-binding domain is an intrinsically disordered recombinase” (Research Square, 2023)

How the values were obtained:
[1] = biological target: PALB2 coiled-coil (Homo sapiens) (UniProt Q86YC2); assay: NMR titration; conditions: cited from earlier work
PALB2-DBD [2] = biological target: T1, PALB2-DBD (Homo sapiens, UniProt Q86YC2 1-195, I195W); assay: smFRET; mean FRET 0.18 free, 0.45 and 0.79 bound; AUC of DNA complexes: 0.1 M NaCl, 20 C; smFRET, EPR and CD buffers not in the material; conditions: protein: recombinant; tags: 6xHis-SUMO and MBP, cleaved by Ulp1/TEV; chain copies: 2; label: 5' Cy3, Cy5 at position 50; single strand
T1 sequence: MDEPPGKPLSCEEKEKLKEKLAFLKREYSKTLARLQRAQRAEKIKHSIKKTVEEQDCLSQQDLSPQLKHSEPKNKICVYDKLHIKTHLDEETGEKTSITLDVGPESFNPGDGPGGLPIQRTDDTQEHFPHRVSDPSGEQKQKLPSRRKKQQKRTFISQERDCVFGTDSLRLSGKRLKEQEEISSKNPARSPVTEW

PALB2-DBD [3] = biological target: T1, PALB2-DBD; assay: analytical ultracentrifugation; DNA:protein 1:2 and 1:4; 0.1 M NaCl; AUC of DNA complexes: 0.1 M NaCl, 20 C; smFRET, EPR and CD buffers not in the material; conditions: protein: recombinant; tags: 6xHis-SUMO and MBP, cleaved by Ulp1/TEV; chain copies: 2; label: Cy3; single strand
PALB2-DBD [4] = biological target: T1, PALB2-DBD; assay: analytical ultracentrifugation; DNA:protein 1:2 and 1:4; no free DNA peak; 0.1 M NaCl; AUC of DNA complexes: 0.1 M NaCl, 20 C; smFRET, EPR and CD buffers not in the material; conditions: protein: recombinant; tags: 6xHis-SUMO and MBP, cleaved by Ulp1/TEV; chain copies: 2; label: 5' Cy3; single strand
[5] = biological target: the molecule itself; assay: AUC; sedimentation velocity, protein alone; 1 M NaCl, 10% glycerol, 1 mM TCEP, 2 mM CHAPS, 25 mM HEPES pH 7.5; 30,000 rpm, 20°C, absorbance at 280 nm; relatively high protein concentration
[6] = biological target: the molecule itself; assay: AUC; sedimentation velocity with Cy3-labelled ssDNA (Cy3-dT50 or Cy3-dT25), DNA:protein molar ratios 1:2 and 1:4 (4 and 8 μM protein), 0.1 M NaCl, 10% glycerol, 1 mM TCEP, 2 mM CHAPS, 25 mM HEPES pH 7.5, 20°C, absorbance at 550 nm; dimers to tetramer

Molecule: PALB2 coiled-coil (from UniProt Q86YC2)
- Kd [1]: 80 µM

Molecule: TTTTTTTTTTTTTTTTTTTTTTTTTTTTTTTTTTTTTTTTTTTTTTTTTT (ssDNA) [Cy3-dT50-Cy5]
- binding result (PALB2-DBD [2]): binds

Molecule: TTTTTTTTTTTTTTTTTTTTTTTTTTTTTTTTTTTTTTTTTTTTTTTTTT (ssDNA) [Cy3-dT50]
- binding result (PALB2-DBD [3]): binds

Molecule: TGGCGACGGCAGCGAGGCTCTCTAC (ssDNA) [Cy3-dT25 (25mer)]
- binding result (PALB2-DBD [4]): binds

B1: PALB2 DNA-binding domain (PALB2-DBD), N-terminal fragment 1-195 I195W (domain or fragment, human, UniProt Q86YC2 1-195, looked up)
chain: MDEPPGKPLSCEEKEKLKEKLAFLKREYSKTLARLQRAQRAEKIKHSIKKTVEEQDCLSQQDLSPQLKHSEPKNKICVYDKLHIKTHLDEETGEKTSITLDVGPESFNPGDGPGGLPIQRTDDTQEHFPHRVSDPSGEQKQKLPSRRKKQQKRTFISQERDCVFGTDSLRLSGKRLKEQEEISSKNPARSPVTEW
notes: Partner and Localizer of BRCA2 (PALB2), human, amino acids 1-195; the last amino acid mutated to tryptophan to increase absorption at 280 nm; SUMO cleaved with Ulp1 and MBP with TEV protease; also called PLAB2-DBD; source: E. coli BL21*, purified (amylose resin, heparin, gel filtration); not shown: 6×His-SUMO, N-terminal, cleaved; MBP, C-terminal, cleaved
- stoichiometry N [5]: 2
- stoichiometry N [6]: 4
